# Assay results taken from patent US20160237160A1, “ANTI-TWEAKR ANTIBODIES AND USES THEREOF” (BAYER PHARMA AKTIENGESELLSCHAFT, priority 2013, published 2016).
# B1: ITEM-1 (antibody, from another filing, mouse IgG1, V domains shown)
# VH: EVKLEESGGGLVQPGGSMKLSCVASGFSFSNYWMNWVRQSPEKGLEWVAEIRLKSNNYATHYAESVKGRFTISRHDSKSSVYLQMNNLRAEDTGIYYCTRAYADYFDYWGQGTTLTVSS
# VL: DIVLTQSPASLVVSLGQRATISCRASQSVSTSTYSYMHWYQQKPGQPPKILIKYASNLESGVPARFSGSGSGTDFTLNIHPVEEEDTATYYCQHSWEIPYTFGGGTKLEIKR
# Target: TPP-2305 (hTNFRSF12Aaa28-80) (Human) (UniProt Q9NP84)
# Assay: SPR (Biacore T100), IgG captured, TPP-2305 injected, 1:1 model
binder,measurement,value
B1,Kd,2.9 nM
same,koff,0.011 s⁻¹
same,kon,3.8e+06 M⁻¹ s⁻¹
